Reference: the supplement of paper PMC12764529
± gives the half width of the 95% confidence interval.

Experiments:
[1] = folding stability dG unfold from chymotrypsin proteolysis; higher = more stable
How it was run: (§1)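 Designed mini-proteins with no cysteine and under 80 residues were kept only if AlphaFold2 dimer inter-PAE was above 15. In a PA-tagged cDNA display construct, they were digested with trypsin and chymotrypsin and then sequenced. K50 was inferred by Bayesian fitting of counts, and unfolding free energy was derived per protease or combined against a sequence-predicted unfolded-state K50 and a shared folded-state K50.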

[2] = folding stability dG unfold from trypsin proteolysis; higher = more stable
How it was run: as §1

[3] = folding stability dG unfold (combined trypsin and chymotrypsin); higher = more stable
How it was run: as §1

| Sequence | folding stability dG unfold [1] | folding stability dG unfold [2] | folding stability dG unfold [3] |
| --- | --- | --- | --- |
| SAGGSAGGSAGGMTITVNGPTATITYPDGSVETIPLTSPEEFEALKAAHPDVEATPASPSAGGSAGGSAGGS [r10_1211_JUSTAS] | 1.21 ± 0.014 kcal/mol | 0.353 ± 0.047 kcal/mol | 0.967 ± 0.093 kcal/mol |
| SAGGSAGGSAGGMTIVIVVPAENLTPEEIAELLREAGYEVTVERREDGYLVVTVRLPEPSAGGSAGGSAGGS [r10_1254_TrROS_Hall] | 3.08 ± 0.052 kcal/mol | 3.5 ± 0.083 kcal/mol | 3.43 ± 0.048 kcal/mol |
| SAGGSAGGSAGGMTKLEPLATEPNPLKVLTKVTTTDPVTGKPKTTIVETEIPVPESELGSAGGSAGGSAGGS [r10_846_JUSTAS] | -0.0657 ± 0.13 kcal/mol | 0.0416 ± 0.06 kcal/mol | 0.0083 ± 0.12 kcal/mol |
| SAGGSAGGSAGGMTLEELKKAIENAKPGETIEIEINGETYRITIIEKDGKLIIKIEKLPPSAGGSAGGSAGG [r7_448_TrROS_Hall] | 4.21 ± 0.25 kcal/mol | 4.36 ± 0.36 kcal/mol | 4.19 ± 0.24 kcal/mol |
| SAGGSAGGSAGGMTLVIVVETEEQAEALAEELKKKGFEVTVERDEETNLLVVTVKVKPPPSAGGSAGGSAGG [r7_623_TrROS_Hall] | 3.36 ± 0.11 kcal/mol | 4.04 ± 0.25 kcal/mol | 3.66 ± 0.12 kcal/mol |
| SAGGSAGGSAGGMTPEEIEAALQKAREENSEDEEFTVTVTDPETGEVLTIRIDPNSVTIESAGGSAGGSAGG [r7_45_JUSTAS] | -0.0816 ± 0.11 kcal/mol | 1.15 ± 0.034 kcal/mol | 0.719 ± 0.08 kcal/mol |
| SAGGSAGGSAGGMTPEEIEALKARPLPDGSPILSIDREGNVYTITTARDPSVRTTVIPAESAGGSAGGSAGG [r7_995_JUSTAS] | -0.853 ± 0.43 kcal/mol | -0.623 ± 0.61 kcal/mol | -0.626 ± 0.54 kcal/mol |
| SAGGSAGGSAGGMTPIEKEEPHHHMTFTREGDTVSLETFPGSGSIRKTLPSEEEVEKLLSAGGSAGGSAGGS [r10_1104_JUSTAS] | 0.156 ± 0.096 kcal/mol | -0.413 ± 0.071 kcal/mol | 0.00761 ± 0.11 kcal/mol |
| SAGGSAGGSAGGMTTTTTAPESGDLVTIHPEKGIAVVTSPEGKVTEVPIDPDDYSVEPASAGGSAGGSAGGS [r10_568_JUSTAS] | 1.57 ± 0.079 kcal/mol | 0.343 ± 0.076 kcal/mol | 1.19 ± 0.12 kcal/mol |
| SAGGSAGGSAGGMTTTTVSRSPDGTITTTTTTYVPTPDGSVVPVTTTTTTTPIDPAALSSAGGSAGGSAGGS [r10_991_JUSTAS] | 1.39 ± 0.017 kcal/mol | 1.45 ± 0.046 kcal/mol | 1.42 ± 0.036 kcal/mol |
| SAGGSAGGSAGGMTVTVEISIPVTVETSFFKPNKPYFKKKTINKKITIEIPNGEPLSLLSAGGSAGGSAGGS [r10_633_JUSTAS] | -0.0788 ± 0.2 kcal/mol | 0.492 ± 0.14 kcal/mol | 0.249 ± 0.13 kcal/mol |
| SAGGSAGGSAGGMTVVERTIEVEPDAKVIPLNLPGSNISATVLEYDPETGTLKVKIYVKESAGGSAGGSAGG [r17_198_JUSTAS] | 1.06 ± 0.12 kcal/mol | 0.485 ± 0.05 kcal/mol | 0.945 ± 0.11 kcal/mol |
| SAGGSAGGSAGGMVELDPENGTLTVLVEVDGELYKVTIKFNPETNEIVSIEVEKLPELEESAGGSAGGSAGG [r7_343_TrROS_Hall] | 3.85 ± 0.31 kcal/mol | 3.03 ± 0.41 kcal/mol | 3.66 ± 0.42 kcal/mol |
| SAGGSAGGSAGGMVIKITTESGEKIEIEVPEEDEEKVKELVKELEKAGFKVKKVEVFEPSAGGSAGGSAGGS [r10_231_TrROS_Hall] | 1.87 ± 0.073 kcal/mol | 1.6 ± 0.11 kcal/mol | 1.77 ± 0.17 kcal/mol |
| SAGGSAGGSAGGMVRITVEVDGKTYELVVEGMSLEEIEELLKKPNIKKAKVEPLSEEELKSAGGSAGGSAGG [r7_502_TrROS_Hall] | 2.71 ± 0.09 kcal/mol | 1.24 ± 0.04 kcal/mol | 2.32 ± 0.098 kcal/mol |
| SAGGSAGGSAGGMVVKIKVDGKTITLSAEELKKNKDLLKELEKKGYKIVSIEVFEPEEESAGGSAGGSAGGS [r10_396_TrROS_Hall] | 1.71 ± 0.027 kcal/mol | 1.57 ± 0.056 kcal/mol | 1.67 ± 0.08 kcal/mol |
| SAGGSAGGSAGGMYITFDFEVPPNNPEVIEELKSKGIEYKKIEPKPDKVKVKVIIPEKLLSAGGSAGGSAGG [r7_41_JUSTAS] | -0.12 ± 0.27 kcal/mol | -0.638 ± 0.3 kcal/mol | -0.38 ± 0.27 kcal/mol |
| SAGGSAGGSAGGMYVAVVTRPDGSRLVVETEPGEEIELFTEDGRPLGITAVAPVDEEAFSAGGSAGGSAGGS [r10_422_TrMRF] | -0.334 ± 0.18 kcal/mol | 0.444 ± 0.036 kcal/mol | 0.227 ± 0.09 kcal/mol |
| SAGGSAGGSAGGNGKKEITIFIKVPPGMPPNEIKDELKDLGLTNIEIERHNNWVMITFRSAGGSAGGSAGGS [r10_868_TrROS] | 1.84 ± 0.099 kcal/mol | 1.15 ± 0.06 kcal/mol | 1.58 ± 0.12 kcal/mol |
| SAGGSAGGSAGGNIEVLPIPDGYWVIKIPDGRIMVFNPGRGEFEPIPIENVTIEPVRPGDSAGGSAGGSAGG [r7_656_TrROS] | 0.929 ± 0.055 kcal/mol | 0.4 ± 0.021 kcal/mol | 0.783 ± 0.076 kcal/mol |
| SAGGSAGGSAGGNIKVDDVHHNPNNYRQVKIDLPGGKPIKIWMSMDDPNNVKEIAKEIFSAGGSAGGSAGGS [r10_472_TrROS] | -0.414 ± 0.18 kcal/mol | -0.191 ± 0.048 kcal/mol | -0.22 ± 0.1 kcal/mol |

| Sequence | folding stability dG unfold [1] | folding stability dG unfold [2] | folding stability dG unfold [3] |
| --- | --- | --- | --- |
| SAGGSAGGSAGGNITVTEDGWIVIEIPYYSPDGGPSPITIVIPIPKMPPEEAEELADKGSAGGSAGGSAGGS [r10_1096_TrROS] | 1.04 ± 0.14 kcal/mol | 1.13 ± 0.14 kcal/mol | 1.11 ± 0.14 kcal/mol |
| SAGGSAGGSAGGNNLYSTSTTVLSTVPVRPDETVTRPGTGAPVSPSETVALSTTSTAPSLSAGGSAGGSAGG [r11_793_JUSTAS] | -0.729 ± 0.081 kcal/mol | 0.629 ± 0.026 kcal/mol | 0.246 ± 0.054 kcal/mol |
| SAGGSAGGSAGGPDAAPSAVREYVLVTVPVYAENGTPLGPVTVVAPASVSLAAVADAVFNSAGGSAGGSAGG [r7_109_TrMRF] | 0.368 ± 0.19 kcal/mol | 0.292 ± 0.077 kcal/mol | 0.399 ± 0.11 kcal/mol |
| SAGGSAGGSAGGPDDWVEVYFIMVSIKPKEVKPDPNGGAEYEFEIKISIFPFWIPPDDISAGGSAGGSAGGS [r10_524_TrROS] | 4.15 ± 0.18 kcal/mol | 3.33 ± 0.26 kcal/mol | 3.94 ± 0.22 kcal/mol |
| SAGGSAGGSAGGPDWRMISIPITFRFYVMEYDGGKPKKAEPIHEHPIPIMIMFPPDALKSAGGSAGGSAGGS [r10_492_TrROS] | 3.35 ± 0.014 kcal/mol | 1.87 ± 0.032 kcal/mol | 2.91 ± 0.07 kcal/mol |
| SAGGSAGGSAGGPENDWREVDIKIKFENPEGKPIFDIKIYYMPDGDIMIYFPNGNWIWISAGGSAGGSAGGS [r10_972_TrROS] | 4.14 ± 0.065 kcal/mol | 2.42 ± 0.14 kcal/mol | 3.75 ± 0.17 kcal/mol |
| SAGGSAGGSAGGPKAIVTEVEVEPNTGKARLKVKVYDPVTGKFSEFEVEVETTGKDLNLSAGGSAGGSAGGS [r10_173_TrMRF] | 2.37 ± 0.074 kcal/mol | 1.08 ± 0.049 kcal/mol | 1.89 ± 0.11 kcal/mol |
| SAGGSAGGSAGGPKAPGDKAVPATVEVRVTEYAVVPGLGEKLEKLPEKTFKATFVFFNKSAGGSAGGSAGGS [r10_122_TrMRF] | 0.611 ± 0.11 kcal/mol | -0.48 ± 0.26 kcal/mol | 0.286 ± 0.092 kcal/mol |
| SAGGSAGGSAGGPKLVLKIKTEIKIEKKLEFDPETGELTEEIEIEIKIEIELEPLPEGLSAGGSAGGSAGGS [r10_376_TrROS_Hall] | 3.24 ± 0.35 kcal/mol | 1.32 ± 0.25 kcal/mol | 2.83 ± 0.96 kcal/mol |
| SAGGSAGGSAGGPKVEVLEVFEFGDLRFVKVYDPETGKVTLLAVTRSDGSKVTFFNPEESAGGSAGGSAGGS [r10_655_TrMRF] | 2.58 ± 0.053 kcal/mol | 1.42 ± 0.056 kcal/mol | 2.23 ± 0.15 kcal/mol |
| SAGGSAGGSAGGPLKVEVIGSIEGDDRVYVLTRVPGVGGLFVAEYEKPSGKILSVSPVPLSAGGSAGGSAGG [r7_154_TrMRF] | 1.3 ± 0.15 kcal/mol | 0.743 ± 0.065 kcal/mol | 1.07 ± 0.081 kcal/mol |
| SAGGSAGGSAGGPLPGKPPLRLKLFTLTVRTRTYRKTEDGTWEEVEESEAEITVLVLEPVSAGGSAGGSAGG [r7_506_TrROS_Hall] | 4.99 ± 0.17 kcal/mol | 3.45 ± 0.11 kcal/mol | 4.71 ± 0.14 kcal/mol |
| SAGGSAGGSAGGPMPVSVSPIGTKVEKTEEPLVVETTTTLSDAEGPPVTTTTTTVTPPSTSAGGSAGGSAGG [r11_129_JUSTAS] | 1.33 ± 0.1 kcal/mol | 1.27 ± 0.08 kcal/mol | 1.35 ± 0.13 kcal/mol |
| SAGGSAGGSAGGPPSVPITITLIILFPDGYFIVIELTIEVPPDGEIEIKIKILHIFPVKSAGGSAGGSAGGS [r10_1139_TrROS] | 3.76 ± 0.12 kcal/mol | 3.1 ± 0.093 kcal/mol | 3.6 ± 0.12 kcal/mol |
| SAGGSAGGSAGGPRMTVVDLDPEKGDHLYLVEIPDTNEVVLVSSSELLRLAEAGPVELKGSAGGSAGGSAGG [r7_452_TrMRF] | 0.115 ± 0.062 kcal/mol | -0.107 ± 0.27 kcal/mol | 0.129 ± 0.14 kcal/mol |
| SAGGSAGGSAGGPRPLRRELRIRRRFRFRVLGLEEGEPRPREFEVEVELVLVETRGPGESAGGSAGGSAGGS [r10_118_TrMRF] | 4.31 ± 0.093 kcal/mol | 2.65 ± 0.082 kcal/mol | 3.84 ± 0.21 kcal/mol |
| SAGGSAGGSAGGPRTIYIPVKVEPDPNGKWKIDIEEIAKNLPDVKITSITPNYIKITFPASAGGSAGGSAGG [r11_771_TrROS] | 1.38 ± 0.13 kcal/mol | 0.398 ± 0.18 kcal/mol | 1.08 ± 0.16 kcal/mol |
| SAGGSAGGSAGGPRTLTLTVTLTRTYYDEETGEEVETETETLTLTLRLEPPPPLSPEQLSAGGSAGGSAGGS [r10_50_TrROS_Hall] | 3.19 ± 0.07 kcal/mol | 2.69 ± 0.061 kcal/mol | 2.99 ± 0.17 kcal/mol |
| SAGGSAGGSAGGPTVTLTLEVPVEDAEELAKALEDAGKARVTKVERNEDGFLRITVEFEDSAGGSAGGSAGG [r7_589_TrROS_Hall] | 1.28 ± 0.027 kcal/mol | 0.593 ± 0.048 kcal/mol | 1.06 ± 0.075 kcal/mol |
| SAGGSAGGSAGGPVRIVMKPSDIEYLLEKFGVEPLEIEEVEEDYVVVTITPEALKEAGLGSAGGSAGGSAGG [r7_587_TrMRF] | 0.737 ± 0.049 kcal/mol | 1.1 ± 0.065 kcal/mol | 1.01 ± 0.18 kcal/mol |
| SAGGSAGGSAGGPYVVKVKLKDGSVVELPVEEDHIPTIEDLVKAGIPPELIESVEIEPESAGGSAGGSAGGS [r10_565_TrMRF] | 3.09 ± 0.093 kcal/mol | 2.57 ± 0.12 kcal/mol | 2.91 ± 0.1 kcal/mol |
